Paper PMC6006506
Blank lines part the entries; values can stand above or below the binder they belong to. No end group written: not given here. OP = not defined here

Biological target: monoclonal antibody depY (mouse)
Test: SPR

- Kd: 360 nM
B1: PPYRM-OP (peptide)
peptide: PPYRM-{OP}
modifications: reading uncertain; also: printed as PPYRM-OP

- Kd: 12 nM
B2: LYGLPR-OP (peptide)
peptide: LYGLPR-{OP}
modifications: reading uncertain; also: printed as LYGLPR-OP
